This series in a line: soluble on expression in E. coli; label from the status in PepcDB or PDB records.
Consider “MLELFLKEEWTTEAKEILRPFGQKKLIGIQMGASNRSRQWFVERWIELAKRIIERDEEVVIVFVGSKNELEEISLVAQALPQDRVFISAGRLSLGAAAALIGELGLLFTPDTGPLHIAVALRVKTISLFAVANPKNSLPDYDQSLHRYIKVDRCCEPCVGKRCAYQKCMEAIGVDEVYEEYKKLQELEHHHHHH”, for which the “soluble on expression in E. coli” value was “soluble”.

“MIGSTSDGLVPGNTDMPATPTTALTALRTPHPPTGGESMHPRTRTAPALLFAVCLTALAAYPAAADDPVPTTERVSVTLDGAQIDDPSYRPQLTSKGGVVYTSDGPVWSTDHNGVSDAYRNSERVSYNMGAARSYDPSACHTARMIAFVSDRTPAGGTTPSVYVRNTPVGKLSYASHGYQGVPFTWAGQPAMSADCQWMAFSATLPATPDHVEQPRVYRYRIYDGTIEQVSPDSADGSRAAVRPSISADGRYVAYQSSIPHPGGPANDSDIYVRDLETGTLEKASVGRHGRPADRASTGPSLSADGRHVAFDSYASNLAPGDTNGTVNVFVRDLDAGTTRLVKGAGRHAYTAEAALSGDGLHLAYVSAGIRGSRGVPAVYLRDLATGRTRLISVDTRGHRNDRAAGNPSVNPDGTAVAFDSASPDLVPGDTNGTVDVFLRRLGSPEALEHHHHHH”: the “soluble on expression in E. coli” value was “soluble”.

For the sequence “MAHHHHHHMPSLFDPLTIGDLTLANRIIMAPLTRARAGDTRTPNALMARYYAERASAGLIISEATSVTPQGVGYASTPGIWSPEQVDGWRLVTDAVHAAGGRIFLQLWHVGRVSDPVFLDGALPVAPSAIAPGGHVSLVRPQRPYVTPRALELDEIPGVVAAFRRGAENARAAGFDGVEVHGANGYLLDQFLQDSANRRTDAYGGSIENRARLLLEVVDAAIDVWSAARVGVHLAPRGDAHTMGDSDPAATFGHVARELGRRRIAFLFARESFGGDAIGQQLKAAFGGPFIVNENFTLDSAQAALDAGQADAVAWGKLFIANPDLPRRFKLNAPLNEPNAATFYAQGEVGYTDYPALESAA”, the “soluble on expression in E. coli” value is “soluble”.

As to “MTKKLHIKTWGCQMNEYDSSKMADLLGSTHGYELTEIAEEADVLLLNTCSIREKAQEKVFHQLGRWKALKDLNPNLIIGVGGCVASQEGAHIRERAHYVDVIFGPQTLHRLPEMINHVQGTRSPIVDISFPEIEKFDRLPEPRADGPTAFVSIMEGCNKYCTFCVVPYTRGEEVSRPCDDVLFEIAQLAAQGVREVNLLGQNVNAYRGETYDGEICSFAELLRLVAAIDGIDRVRFTTSHPIEFTDDIISVYEDTPELVSFLHLPVQSGSDRVLTMMKRRHTALEYKAIIRKLHNARPGILISSDFIIGFPGETQADFEQTMKLIADVNFDMSYSFVYSARPGTPAADMVDDVLEEEKKQRLYLLQDRITKQAMRFSRLMLGTVQRILVEGTSRKSVMELSGRTENNRVVNFEGTPDMIGKFVDVEIVDVYTNSLRGIVVRTEDQMDLRVHESPSSVIARTRKENEIGVGFYQPLEHHHHHH”, the “soluble on expression in E. coli” value is listed as “soluble”.

Take “MAHHHHHHMLMCAGRKRFYFSLPSSRALKNIVKLPLLEREDKQKIIHIWKEKYQNDKYVVADHIHISKYEQIKNNCKNNSHFIIPQRNQNGYINFYSQFIDHKLLFITALEEYNKLRANSTPYVTLHFFDELKSREIILTKLNIVNNVITKNQAIKFYNYILSFYSDANYFPYVCKFNNDSRNFHYDAFIDKFKHLC”: the “soluble on expression in E. coli” value is “not soluble”.

As to “MGVSRVLHVEGGTPLKGELRVYPAKNAALPILAASLLTPEPITLVEVPRLRDVEVMLELLAHLGTQYAWEGRTLHLQTPEIKSTHAPYELVGQMRASFIVWGALLARAGEGHVSMPGGCAFGFRPVDQHIKALEALGAEVWEEDGTFHARRTRPLSGRVVFDLPTVGGTEQAMLAVALGGEATLVQAAVEPEVVDLGHFLALLGAEVEGLGSPIVRIKGAPRLKGGTYRIIPDRIEAGTYLLAAAATRGSLTLEGVRPDHLDALLDKLWRSGHRLEVGEDWIRFRATPDPAPFHVEAREYPGFPTDLQPIATAYLATVPGQSTVVDRIYPDRFTHVGELARMGAELYLRDRILTVQGRRLHGAQVKALDIRAGGALVVAALSAEGASEIEGVYFLERGYEHLTERLQALGARVHLRESPVALAAD”, the “soluble on expression in E. coli” value is on record as “soluble”.

Take “MIDIQGIKEALPHRYPMLLVDRVLEVSEDTIVAIKNVTINEPFFNGHFPQYPVMPGVVIMEALAQTAGVLELSKPENKGKLVFYAGMDKVKFKKQVVPGDQLVMTATFVKRRGTIAVVEAKAEVDGKLAASGTLTFAIGN”: the “soluble on expression in E. coli” value is “soluble”.

As to “DSQDWHDWIDQALTERRLLLYFQPVVDCLDTQRVLHHKVLARLLDPQATAIAAGRFLPWIERFGWAARMDLAMLEQSLEHLRRHPRPLALSLSAASVRNAQTFAPLLALLKAHPQEARQLTLELDERHLPAAAELERLSQVLRELGCGLGLQHFGGRFSLIGNLTHLGLAYLKLDGCYLHAVDREGDKRLFIEAVYRTTHSIDLPLIAEQVETLGELEVLREMGLRGAMGRLFGSPAPWSGDA”, the “soluble on expression in E. coli” value is “soluble”.

As to “MQHQTLYQDDFVEIFEQDNEVFIKTFKPGLPPKQLNEILSSLPQIQITSFNCLNDALNIVSPSPQKFGRLKERIAITVTPDELKAFVTFNLPREELDIKNRENLIKETYQVLKKKNINFGIKKELFFGDLESGKKYLIAEGVPAVDGEDCKIRMYELEEPRPEIREDGKANYYELKLINKVKAGDWLGERIDATEGFPGKTVYGTTIHPVRGKNYPLSYDKNTVYEVVQNKKVVLYSKIDGAVHYDGNKITVSNHLEIDGDVDFKTGNIIFDGYVTIKGTVTDGFYVEATKDIEINSPLGLGNVKGIKSREGSIYIKGGISSKSFSEISARKNIYTKFVDNVKLSCGGTAHIGFYCINSMVEAKEVFIESIKGNIMGGQVKAEVKITVPVLGSPLEPRTVLILTGFDRKKLSKMLEDIVDRIDRIKEEQMDIKLYLSKQDPFKEMTSRETAEYNSKMQRMSELKAELKSLEEEKKNIARYLKTKGEGEIAITKKVYPNCSIIIKNIQTEIKEPCLATTFFAADGEIKRV”, the “soluble on expression in E. coli” value was “soluble”.

“MGSDKIHHHHHHMTALTPAAFHSDRNRHDAHVARIREVRPGLRIHSDDATDEFDAVMSGQCSPGLHLVLLLEGALDVSYGSRRVVLTTDGRRTGRADRDAVRPAVRMQSFLLNAVEPDTFRRRLSKGGYARRLSLAMSGEWLGHLQAASRGVLPEQLGTMLSAHLAIRFWQPTPRATALAEQIVRPPAYQPMLQAIYLESRVLELLAEAFTPLETDAAQAADASLGSRDYRRMAELRAFLASDAAQALSIDDIARHAGMSANAMQRQFRAAYGTTVFDFVREHHLQRARLALERDAVSVKQAAALAGYTSAANFATAYKRRFGVTPTLARRSDKR”: the “soluble on expression in E. coli” value is listed as “not soluble”.

Take “MRVISGEYGGRRLKALDGDNTRPTTDKVKESIFNMIGPYFDGGMALDLYSGSGGLAIEAVSRGMDKSICIEKNFAALKVIKENIAITKEPEKFEVRKMDANRALEQFYEEKLQFDLVLLDPPYAKQEIVSQLEKMLERQLLTNEAVIVCETDKTVKLPETIGTLKKTRETVYGITQVTIYRQEA”: the “soluble on expression in E. coli” value was “soluble”.

On to “MQPFDSRQADEVATLLALAEHGSFAAAGRALQRHPSVLSKRLGALERRLGIRLVERTTRQLRFTDEGERLASRFRQAVDLLDEAEHEASLGAAQLRGRLRIALPSAMGRLWLGPLLAEFALAHPQVVLETDYSERFVDIIAEGFDLAIRVGELADSRLVARRLCAHRRILGAAPDYLKRHGVPRIPADLAAHNCLGFSGLHSYPEWKLTRQDEQQPVRVRGSMVSNDNEALLCAARQGLGIFAAGEWLMSRDLEAGRLVRVLPEWKLDADAGVYLVRPSARYATAAASAFRQWVEARFAAGPPWQRQRA”, for which the “soluble on expression in E. coli” value was “not soluble”.

Consider “MSLAKTIAYLRVSTSQQDLKNQKFEILDYAQKNGLSIDDFVEVEISSRKSVEERKIDYLVSMLSQGDRVIVSELSRIGRSTVEVLNIINELASKKVFLIAIKQNLNINGSENLQAKVMVTMFSLFAELERDLISDRTKRALEARKAAGVKLGRPKGATGVSKLDGMEGQITELLRKQVSLSSIAKIFSVSRGTVYSFIATRGLTAEGHHHHHH”, for which the “soluble on expression in E. coli” value is “not soluble”.

With “MGSDKIHHHHHHMNPSSRHPQHSDTAASGASEGVPRRYASGRQYELRRGDALAVVTELAAGLRLYSRGGVQLTETYGDGDIPPGATGITLAPWANRVEDGVWYLNGKKQQLDITEVSRNNASHGLLRNAAYELVDEAEFSVTLEAPVFPQHGYPFLVRHRVQYLLAEDLGLVVRQTLLNDSQAPAPFVLGAHPYLRLGDVPASDLVLTVGTGSRLVADERLIPRSSEQVDGATDLRGGRTVSELDIDVAYTDLTFDGGVARQTLKASDGRSVSLWQDENCSYVHVFVTDQYPGRAKAVAIEPMTGPANAFNSGDGLRWLPAGESFTMTWGISASL”, the “soluble on expression in E. coli” value was “not soluble”.

On to “MLKVEMLSTGDEVLHGQIVDTNAAWLADFFFHQGLPLSRRNTVGDNLDDLVTILRERSQHADVLIVNGGLGPTSDDLSALAAATAKGEGLVLHEAWLKEMERYFHERGRVMAPSNRKQAELPASAEFINNPVGTACGFAVQLNRCLMFFTPGVPSEFKVMVEHEILPRLRERFSLPQPPVCLRLTTFGRSESDLAQSLDTLQLPPGVTMGYRSSMPIIELKLTGPASEQQAMEKLWLDVKRVAGQSVIFEGTEGLPAQISRELQNRQFSLTLSEQFTGGLLALQLSRAGAPLLACEVVPSQEETLAQTAHWITERRANHFAGLALAVSGFENEHLNFALATPDGTLALRVRFSTTRYSLAIRQEVCAMMALNMLRRWLNGQDIASEHGWIEVVESMTLSV”, for which the “soluble on expression in E. coli” value was “soluble”.

“MNGIIVDKEKVHPGMPDVVKDAKIALLDAPLEIKKPEFDTNLRIEDPSMIQKFLAQEENMLREMVDKIKSVGANVVITQKGIDDMAQHYLSRAGIYAVRRVKKSDMDKLAKATGASIVSTIDEISSSDLGTAERVEQVKVGEDYMTFVTGSKNHHHHHH”: the “soluble on expression in E. coli” value is “soluble”.

Regarding “VTDHVREADDANIDDLLGDLGGTARAERAKLVEWLLEQGITPDEIRATNPPLLLATRHLVGDDGTYVSAREISENYGVDLELLQRVQRAVGLARVDDPDAVVHMRADGEAAARAQRFVELGLNPDQVVLVVRVLAEGLSHAAEAMRYTALEAIMRPGATELDIAKGSQALVSQIVPLLGPMIQDMLFMQLRHMMETEAVNAGERAAGKPLPGARQVTVAFADLVGFTQLGEVVSAEELGHLAGRLAGLARDLTAPPVWFIKTIGDAVMLVCPDPAPLLDTVLKLVEVVDTDNNFPRLRAGVASGMAVSRAGDWFGSPVNVASRVTGVARPGAVLVADSVREALGDAPEADGFQWSFAGPRRLRGIRGDVRLFRVRRGATRTGSGGAAQDDDLAGSSP”, the “soluble on expression in E. coli” value is reported as “soluble”.

“MGSDKIHHHHHHMYFITLSRQLGTKGTEIAKLVAKELHYDFYDTEAIEKKAGEMGFLDDIRKVDDKPPSPLKQLFSWQTETCLEHLYTVIYDLSRYGNAVVLGRGGNMLFRPIPHALHVRVIASHEKRVQNLLEKVYRRETAVMIMEKSDQERSSFIRFAFNRDWGDPELYDMVLNMDNMTVRSAADTILRAARLRESQCPSRDGMSPLNLMELTAKVKAALANAGFPSNYASPFVNAPGKVRLTGIVHDPREKLAAEMTALKVEGVESVENRIQIAGS”: the “soluble on expression in E. coli” value is on record as “not soluble”.

For “MATLRIGLVSISDRASSGVYQDKGIPALEEWLTSALTTPFELETRLIPDEQAIIEQTLCELVDEMSCHLVLTTGGTGPARRDVTPDATLAVADREMPGFGEQMRQISLHFVPTAILSRQVGVIRKQALILNLPGQPKSIKETLEGVKDAEGNVVVHGIFASVPYCIQLLEGPYVETAPEVVAAFRPKSARRDVSE”, the “soluble on expression in E. coli” value is recorded as “soluble”.

Consider “MGSDKIHHHHHHMKIDRSVIRSLALFAKMADDELDGLLTHATSRLVPPGEAIFEQGQSAAHFFLLIHGRLKVTQVTHDGQQIIVRMVHPGDLFGFARALQRSDYPGTATTAAESVILSWQTDLWPQFVEQNPHLAVSAMQTIGQRLEEAHTRIREMSTQEVERRVAHAVLRLSQQAGRKELDGIRIDFPISRQDIAEMTGTTLHTVSRILSSWESKGLVQGGRQKLLVCNLPGLAQLAEGETSQV”, for which the “soluble on expression in E. coli” value is listed as “not soluble”.

The record behind these values is the DeepSol protein solubility set.
